Columns and labels:
[1] = molecular target: T1, factor VIIIa A1/A3C1C2 dimer, H317A (human, UniProt P00451 20-391; P00451 1709-2351); assay: cell-based or functional assay
T1 chain 1: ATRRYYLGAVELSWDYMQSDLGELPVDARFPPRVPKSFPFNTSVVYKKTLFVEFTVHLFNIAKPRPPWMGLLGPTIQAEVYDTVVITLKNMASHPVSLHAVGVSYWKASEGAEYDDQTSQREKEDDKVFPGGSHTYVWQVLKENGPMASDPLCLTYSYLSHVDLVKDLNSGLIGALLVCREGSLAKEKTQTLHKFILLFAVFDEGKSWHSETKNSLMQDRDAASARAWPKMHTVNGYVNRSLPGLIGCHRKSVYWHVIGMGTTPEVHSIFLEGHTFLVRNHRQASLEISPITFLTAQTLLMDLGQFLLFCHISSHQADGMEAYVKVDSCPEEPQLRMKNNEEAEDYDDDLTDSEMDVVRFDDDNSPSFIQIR
T1 chain 2: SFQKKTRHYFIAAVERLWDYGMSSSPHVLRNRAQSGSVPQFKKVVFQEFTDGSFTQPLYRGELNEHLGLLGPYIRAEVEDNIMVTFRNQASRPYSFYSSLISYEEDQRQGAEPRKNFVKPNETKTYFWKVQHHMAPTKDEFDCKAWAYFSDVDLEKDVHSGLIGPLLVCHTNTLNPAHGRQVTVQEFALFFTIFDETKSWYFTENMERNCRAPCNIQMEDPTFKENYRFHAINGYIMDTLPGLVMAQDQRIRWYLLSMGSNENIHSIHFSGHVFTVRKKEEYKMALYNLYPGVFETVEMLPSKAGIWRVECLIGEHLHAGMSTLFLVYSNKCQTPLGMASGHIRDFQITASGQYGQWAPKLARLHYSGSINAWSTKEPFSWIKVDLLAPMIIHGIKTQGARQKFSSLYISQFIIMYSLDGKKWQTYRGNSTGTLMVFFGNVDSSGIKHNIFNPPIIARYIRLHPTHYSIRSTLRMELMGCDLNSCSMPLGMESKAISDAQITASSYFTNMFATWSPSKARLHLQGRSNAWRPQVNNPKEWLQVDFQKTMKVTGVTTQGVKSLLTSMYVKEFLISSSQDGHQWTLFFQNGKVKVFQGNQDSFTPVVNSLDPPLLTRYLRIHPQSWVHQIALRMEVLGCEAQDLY

[2] = molecular target: T2, factor VIIIa A1/A3C1C2 dimer, wild type (human, UniProt P00451 20-391; P00451 1709-2351); assay: cell-based or functional assay
T2 sequence 1: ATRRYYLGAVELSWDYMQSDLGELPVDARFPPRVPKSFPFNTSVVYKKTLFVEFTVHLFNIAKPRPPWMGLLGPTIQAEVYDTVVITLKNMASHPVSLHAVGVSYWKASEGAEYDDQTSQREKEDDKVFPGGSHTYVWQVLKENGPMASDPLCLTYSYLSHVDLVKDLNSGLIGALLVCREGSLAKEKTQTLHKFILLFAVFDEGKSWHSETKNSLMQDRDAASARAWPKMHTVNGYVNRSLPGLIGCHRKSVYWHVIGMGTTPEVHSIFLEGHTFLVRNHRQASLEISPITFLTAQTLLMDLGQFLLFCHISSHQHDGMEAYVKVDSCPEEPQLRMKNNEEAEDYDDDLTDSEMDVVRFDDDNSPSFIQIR
T2 sequence 2: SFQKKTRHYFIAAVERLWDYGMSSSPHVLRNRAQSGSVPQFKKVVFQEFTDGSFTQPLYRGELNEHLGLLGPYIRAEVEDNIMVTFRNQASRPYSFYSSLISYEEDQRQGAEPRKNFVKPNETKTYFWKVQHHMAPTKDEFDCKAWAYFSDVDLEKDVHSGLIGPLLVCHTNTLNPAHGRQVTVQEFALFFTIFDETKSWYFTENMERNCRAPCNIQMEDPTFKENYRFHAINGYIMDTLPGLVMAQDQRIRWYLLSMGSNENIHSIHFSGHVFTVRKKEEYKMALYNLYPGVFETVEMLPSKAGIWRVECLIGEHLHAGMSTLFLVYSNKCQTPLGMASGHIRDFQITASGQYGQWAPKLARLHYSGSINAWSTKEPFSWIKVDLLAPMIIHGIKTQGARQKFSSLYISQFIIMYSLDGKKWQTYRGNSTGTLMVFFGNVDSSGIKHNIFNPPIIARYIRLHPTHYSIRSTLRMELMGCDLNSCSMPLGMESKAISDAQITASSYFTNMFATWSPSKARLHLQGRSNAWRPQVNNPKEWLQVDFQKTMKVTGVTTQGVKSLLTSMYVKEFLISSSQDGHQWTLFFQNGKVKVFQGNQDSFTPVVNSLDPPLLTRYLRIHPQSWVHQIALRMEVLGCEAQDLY

B1: factor VIIIa A2 subunit, wild type (other)
chain: SVAKKHPKTWVHYIAAEEEDWDYAPLVLAPDDRSYKSQYLNNGPQRIGRKYKKVRFMAYTDETFKTREAIQHESGILGPLLYGEVGDTLLIIFKNQASRPYNIYPHGITDVRPLYSRRLPKGVKHLKDFPILPGEIFKYKWTVTVEDGPTKSDPRCLTRYYSSFVNMERDLASGLIGPLLICYKESVDQRGNQIMSDKRNVILFSVFDENRSWYLTENIQRFLPNPAGVQLEDPEFQASNIMHSINGYVFDSLQLSVCLHEVAYWYILSIGAQTDFLSVFFSGYTFKHKMVYEDTLTLFPFSGETVFMSMENPGLWILGCHNSDFRNRGMTALLKVSSCDKNTGDYYEDSYEDISAYLLSKNNAIEPR
For B1, the “Factor VIIIa decay rate relative to wild type, FIXa (+)” value [1] was 1.28 relative to wild type, the “Factor VIIIa decay rate, FIXa (+)” value [1] was 0.0145 min⁻¹ and the “Factor VIIIa decay rate relative to wild type, FIXa (+)” value [2] was 1 relative to wild type. For the same binder, the “Factor VIIIa decay rate relative to wild type, FIXa (-)” value [2] was 1 relative to wild type, the “Factor VIIIa decay rate, FIXa (+)” value [2] was 0.0113 min⁻¹ and the “Factor VIIIa decay rate, FIXa (-)” value [2] was 0.0631 min⁻¹.
